Source: patent US20230235058A1 (OXFORD UNIVERSITY INNOVATION, published 2023)

T1: soluble cynomolgus macaque BTLA extracellular domain (BTLA K31-R151) (cynomolgus macaque)
T1 construct: also called cynomolgus BTLA; cyno BTLA
T1 chain: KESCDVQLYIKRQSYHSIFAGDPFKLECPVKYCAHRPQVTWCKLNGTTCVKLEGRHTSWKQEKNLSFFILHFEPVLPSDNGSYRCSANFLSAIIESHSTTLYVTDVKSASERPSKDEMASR

T2: human FcγR2A 131R (human, UniProt P12318 34-217)
T2 construct: extracellular domain
T2 sequence (looked up): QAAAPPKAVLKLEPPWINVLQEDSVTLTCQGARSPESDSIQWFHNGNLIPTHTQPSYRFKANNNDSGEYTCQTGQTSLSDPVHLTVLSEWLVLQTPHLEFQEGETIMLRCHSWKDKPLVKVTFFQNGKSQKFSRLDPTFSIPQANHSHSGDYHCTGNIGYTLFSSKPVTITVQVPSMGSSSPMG

T3: human FcγR2A 131H (human, UniProt P12318 34-217)
T3 construct: extracellular domain
T3 sequence (looked up): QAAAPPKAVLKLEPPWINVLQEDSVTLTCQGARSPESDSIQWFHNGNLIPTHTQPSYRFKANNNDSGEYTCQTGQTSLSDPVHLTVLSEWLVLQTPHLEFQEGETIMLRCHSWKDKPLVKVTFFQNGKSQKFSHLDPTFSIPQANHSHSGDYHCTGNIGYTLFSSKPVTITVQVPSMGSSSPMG

T4: human FcγR2B (human, UniProt P31994 43-217)
T4 construct: extracellular domain; also called hFcγR2B; CD32B
T4 sequence (looked up): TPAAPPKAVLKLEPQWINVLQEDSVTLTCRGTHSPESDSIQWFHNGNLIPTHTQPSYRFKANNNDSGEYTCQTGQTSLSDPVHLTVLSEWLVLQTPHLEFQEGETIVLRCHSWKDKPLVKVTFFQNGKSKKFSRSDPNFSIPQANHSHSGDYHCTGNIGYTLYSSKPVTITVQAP


What was measured:
[1] = molecular target: full length human BTLA expressed on cells (human, UniProt Q7Z6A9 31-289); experiment: cell-based or functional assay
[2] = molecular target: chimeric BTLA of humanised-BTLA mice (human extracellular region, murine transmembrane and signaling … (human; mouse, UniProt Q7TSA3 184-306, limits assumed); experiment: cell-based or functional assay
chimeric BTLA of humanised-BTLA mice (human extracellular region, murine transmembrane and signaling …, sequence (Q7TSA3 other isoform, or with tags, fused parts or gaps mutant limits assumed): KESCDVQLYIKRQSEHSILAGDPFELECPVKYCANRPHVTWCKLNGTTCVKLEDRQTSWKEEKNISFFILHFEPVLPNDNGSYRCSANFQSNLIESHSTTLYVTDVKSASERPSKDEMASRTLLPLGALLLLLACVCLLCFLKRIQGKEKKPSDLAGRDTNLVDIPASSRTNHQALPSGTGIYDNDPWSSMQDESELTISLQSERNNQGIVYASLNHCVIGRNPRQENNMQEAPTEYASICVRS

[3] = molecular target: T1, soluble cynomolgus macaque BTLA …; experiment: SPR 37C, mAb captured, BTLA ECD analyte;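 also: Anti-BTLA mouse antibodies captured on a sensor chip via polyclonal anti-mouse IgG, isotype control antibody in reference channel, rates fitted after reference and blank subtraction to derive Kd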
Procedure: (§1) Mouse antibody capture kit (GE Healthcare) was used to coat a Series S CMS Sensor Chip (GE Healthcare) with polyclonal anti-mouse IgG. Anti-BTLA antibody was then captured onto the biosensor surface and a negative control antibody (clone Mopc21; Biolegend) captured in the reference channel. […] Association and dissociation rates were fitted using BiaEvaluation Software (GE Healthcare) after reference and blank subtractions, and dissociation constants were calculated (FIG. 1b).

[4] = molecular target: T2, human FcγR2A 131R; experiment: SPR 37C, steady state;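 also: fc variants captured on chip-bound human BTLA ectodomain, recombinant FcγR ectodomains injected as analyte at varied concentrations, double-referenced equilibrium binding fitted to Langmuir model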
[5] = molecular target: T3, human FcγR2A 131H; experiment: SPR 37C, steady state;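 also: fc variants captured on chip-bound human BTLA ectodomain, recombinant FcγR ectodomains injected as analyte at varied concentrations, double-referenced equilibrium binding fitted to Langmuir model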
[6] = molecular target: T4, human FcγR2B; experiment: SPR 37C, steady state;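 also: fc variants captured on chip-bound human BTLA ectodomain, recombinant FcγR ectodomains injected as analyte at varied concentrations, double-referenced equilibrium binding fitted to Langmuir model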
[7] = molecular target: T5, human FcγR3A 158F (human, UniProt P08637 17-208); experiment: SPR 37C, steady state;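 also: fc variants captured on chip-bound human BTLA ectodomain, recombinant FcγR ectodomains injected as analyte at varied concentrations, double-referenced equilibrium binding fitted to Langmuir model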
T5 construct: extracellular domain
T5 sequence (P08637 17-208): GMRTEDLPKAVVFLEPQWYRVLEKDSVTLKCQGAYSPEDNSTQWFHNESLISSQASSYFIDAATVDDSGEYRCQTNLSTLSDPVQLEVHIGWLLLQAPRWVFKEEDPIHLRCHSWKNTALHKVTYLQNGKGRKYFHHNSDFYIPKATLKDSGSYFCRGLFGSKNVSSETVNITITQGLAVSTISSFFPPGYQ

[8] = molecular target: T6, human FcγR3A 158V (human, UniProt P08637 17-208); experiment: SPR 37C, steady state
T6 construct: extracellular domain
T6 sequence (P08637 17-208 F176V): as the sequence (P08637 17-208) above, with F160V counted along it

[9] = molecular target: T7, human FcγR3B (human, UniProt O75015 17-200, limits assumed); experiment: SPR 37C, steady state
T7 construct: extracellular domain; also called CD16B
T7 sequence (O75015 17-200 limits assumed): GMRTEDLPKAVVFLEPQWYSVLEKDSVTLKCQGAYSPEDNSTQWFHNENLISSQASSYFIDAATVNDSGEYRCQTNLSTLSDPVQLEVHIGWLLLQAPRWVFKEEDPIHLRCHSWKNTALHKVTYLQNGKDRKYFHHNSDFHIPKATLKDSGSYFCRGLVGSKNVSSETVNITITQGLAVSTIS

[10] = molecular target: T8, human FcRn (human, UniProt P55899 24-297; P61769 21-119, limits assumed, biotinylated); experiment: SPR, pH6.0
T8 construct: bought; also called FcRn pH6
T8 sequence (P55899 24-297 limits assumed, chain 1 of 2): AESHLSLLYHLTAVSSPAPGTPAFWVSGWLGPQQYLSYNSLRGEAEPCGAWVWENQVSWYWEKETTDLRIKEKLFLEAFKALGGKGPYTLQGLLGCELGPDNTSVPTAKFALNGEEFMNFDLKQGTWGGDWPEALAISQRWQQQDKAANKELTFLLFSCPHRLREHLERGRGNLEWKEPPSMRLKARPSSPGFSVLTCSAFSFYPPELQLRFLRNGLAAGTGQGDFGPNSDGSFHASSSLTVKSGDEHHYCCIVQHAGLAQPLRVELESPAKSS
T8 sequence (P61769 21-119 limits assumed, chain 2 of 2): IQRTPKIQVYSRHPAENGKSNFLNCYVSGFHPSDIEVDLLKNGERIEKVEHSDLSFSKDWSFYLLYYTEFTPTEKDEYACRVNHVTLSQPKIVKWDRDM

[11] = molecular target: T9, monomeric soluble human BTLA extracellular domain (BTLA K31-R151) (human, UniProt Q7Z6A9 31-151); experiment: SPR 37C, mAb captured, BTLA ECD analyte;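 also: Anti-BTLA mouse antibodies captured on a sensor chip via polyclonal anti-mouse IgG, isotype control antibody in reference channel, rates fitted after reference and blank subtraction to derive Kd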
T9 construct: also called hBTLA; monomeric BTLA
Procedure: as §1
For AntiCD3/CD28 (CD4 T cell proliferation) repeat 1 in this document: test concentration or dose not given here.
For AntiCD3/CD28 (CD4 T cell proliferation) repeat 2 in this document: test concentration or dose not given here.
For AntiCD3/CD28 (CD69+ CD4 T cells) repeat 1 in this document: test concentration or dose not given here.
For T cell reporter (NFκB signaling) in this document: test concentration or dose not given here.

Binder | T cell reporter (NFκB signaling) [1] [% inhibition] | AntiCD3/CD28 (CD4 T cell proliferation) repeat 1 [2] [% inhibition] | AntiCD3/CD28 (CD4 T cell proliferation) repeat 2 [2] [% inhibition] | AntiCD3/CD28 (CD69+ CD4 T cells) repeat 1 [2] [% inhibition] | AntiCD3/CD28 (CD69+ CD4 T cells) repeat 2 [2] [% inhibition] | MLR (CD4 T cell proliferation) repeat 1 [2] [% inhibition] | MLR (CD4 T cell proliferation) repeat 2 [2] [% inhibition] | Kd [3] [nM] | Kd [11] [nM] | koff [11] [s⁻¹] | kon [11] [M⁻¹ s⁻¹] | further results
16H2 (antibody, IgG1, V domains shown, mIgG1) VH: EVQLQQSGPELVQPGASVKISCKASGYTFTDYYMIWVKQSHGKSLEWIGNINPNNGGTTYNQKFKGKATLTVDKSSSTAYMGLPSLTSEDSAVYYCARGGLRPLYFDYWGQGTTLTVSS VL: NIVMTQSPKSMSMSVGERVTLSCKASENVDTYVSWYQQKPEQSPKLLIYGASNRYTGVPDRFTGSGSATDFTLTISSVQAEDLADYHCGQSYSYPLTFGAGTKLELI | 29 | 11 | 23 | 51 | 60 | 40 | 26 | 160 |  |  |  | 
14D4 (antibody, IgG1, V domains shown, mIgG1) VH: QVQLQQPGAELVKPRASVKLSCKASGYTFTSYWMHWVKQRPGQGLEWIGMIHPNNGIPNYNEKFKSKATLTVDKSSTTAYMQLSSLTSEDSAVYHCAREGYYGSEGYFDVWGTGTTVTVSS VL: QIVLTQSPAIMSASPGEKVTMTCSASSSISYIHWYQQKPGTSPKRWIYDTSKLASGVPARFSGSGSGTSYSLTISSMEAEDAATYYCHQRSTYPYTFGGGTKLEIK | 16 | 24 | 29 | 43 | 52 | 39 | 26 | 1.83 |  |  |  | 
humanised 2.8.6 hIgG1 D265A S267E A330R (antibody, Fc variant with the variable domains of humanised 2.8.6; copies: 2 + 2) heavy: QVTLKESGPALVKPTQTLTLTCTVSGFSLTTYGVHWIRQPPGKALEWLGVMWPGGRTSYNPSLKSRLTITKDNSKSQVVLTMTNMDPVDTATYYCVRGDYEYDYYAMDYWGQGTLVTVSSASTKGPSVFPLAPSSKSTSGGTAALGCLVKDYFPEPVTVSWNSGALTSGVHTFPAVLQSSGLYSLSSVVTVPSSSLGTQTYICNVNHKPSNTKVDKKVEPKSCDKTHTCPPCPAPELLGGPSVFLFPPKPKDTLMISRTPEVTCVVVAVEHEDPEVKFNWYVDGVEVHNAKTKPREEQYNSTYRVVSVLTVLHQDWLNGKEYKCKVSNKALPRPIEKTISKAKGQPREPQVYTLPPSREEMTKNQVSLTCLVKGFYPSDIAVEWESNGQPENNYKTTPPVLDSDGSFFLYSKLTVDKSRWQQGNVFSCSVMHEALHNHYTQKSLSLSPGK light: EIVLTQSPATLSLSPGERATLSCRASSSVSYMHWYQQKPGQAPRPLIYATSNRATGIPARFSGSGSGTDYTLTISSLEPEDFAVYYCHQWSSNPYTFGQGTKLEIKRTVAAPSVFIFPPSDEQLKSGTASVVCLLNNFYPREAKVQWKVDNALQSGNSQESVTEQDSKDSTYSLSSTLTLSKADYEKHKVYACEVTHQGLSSPVTKSFNRGEC |  |  |  |  |  |  |  |  |  |  |  | Kd [4]: 22 µM; Kd [5]: 113 µM; Kd [6]: 80.1 µM; binding result [7]: no binding; binding result [8]: no binding; binding result [9]: no binding
humanised 2.8.6 hIgG1 delta ab (antibody) chain 1: QVTLKESGPALVKPTQTLTLTCTVSGFSLTTYGVHWIRQPPGKALEWLGVMWPGGRTSYNPSLKSRLTITKDNSKSQVVLTMTNMDPVDTATYYCVRGDYEYDYYAMDYWGQGTLVTVSSASTKGPSVFPLAPSSKSTSGGTAALGCLVKDYFPEPVTVSWNSGALTSGVHTFPAVLQSSGLYSLSSVVTVPSSSLGTQTYICNVNHKPSNTKVDKKVEPKSCDKTHTCPPCPAPPVAGPSVFLFPPKPKDTLMISRTPEVTCVVVDVSHEDPEVKFNWYVDGVEVHNAKTKPREEQYNSTYRVVSVLTVLHQDWLNGKEYKCKVSNKGLPSSIEKTISKAKGQPREPQVYTLPPSRDELTKNQVSLTCLVKGFYPSDIAVEWESNGQPENNYKTTPPVLDSDGSFFLYSKLTVDKSRWQQGNVFSCSVMHEALHNHYTQKSLSLSP chain 2: EIVLTQSPATLSLSPGERATLSCRASSSVSYMHWYQQKPGQAPRPLIYATSNRATGIPARFSGSGSGTDYTLTISSLEPEDFAVYYCHQWSSNPYTFGQGTKLEIKRTVAAPSVFIFPPSDEQLKSGTASVVCLLNNFYPREAKVQWKVDNALQSGNSQESVTEQDSKDSTYSLSSTLTLSKADYEKHKVYACEVTHQGLSSPVTKSFNRGEC |  |  |  |  |  |  |  |  |  |  |  | avidity (FcRn pH6) [10]: 14.8 nM; Kd [4]: 9.56 µM; Kd [5]: 4.86 µM; Kd [6]: 82.5 µM; Kd [7]: 722 µM; Kd [8]: 494 µM; Kd [9]: 2.82 mM
3E8 (antibody, IgG1, V domains shown, mIgG1; also called clone 3E8) VH: QVQLQQSGAELARPGASVRLSCKASGYTFTSYAIRWVKQRTGQGLEWIGEIYPRSGNTYYNENFKGKATLTADKSSSTAYMELRSLTSEDSAVYFCARSGGASYTMDYWGQGTSVTVSS VL: not shown | 30 | 27 | 35 | 52 | 64 | 43 | 35 | 607 | 112 | 0.0608 | 543000 | 
27G9 (antibody, IgG1, V domains shown, mIgG1) VH: EVQLQQSVAELVRPGASVKLSCTASGFNIKNTYMHWVKQRPEQGLEWIGRIDPANGNTKYAPKFQGKATITADTSSNTAYLQLSSLTSEDTAIYYCALTYYGSSQYYFDYWGQGTTLTVSS VL: not shown | 24 | 10 | 13 | 24 | 22 | 9 | 8 | 654 | 437 | 0.0838 | 192000 | 
26F3 (antibody, IgG1, V domains shown, mIgG1) VH: EVQLQQSVAELVRPGASVKLSCTASGFNIKNTYMYWVKQRPEQGLEWIGRIDPANGNTKYAPKFQGKATITADTSSNTAYLQLSSLTSEDTAIYYCALLYYGSSYDYFDYWGQGTTLTVSS VL: not shown | 20 | 4 | 0 | 19 | 17 | 9 | -5 | 810 | 2200 | 2.02 | 921000 | 
6.2 (antibody, IgG1, V domains shown, mIgG1; also called clone 6.2; parent clone 6.2) VH: EVKLVESGGGLVKPGGSLKLSCAASGFTLSSYGMSWVRQIPEKRLEWVASIRSDGNTYYPDSVKGRFIISRDNARNILYLQMSSLRSEDTAMYYCTRGGYYGSSPYYWGQGTTLTVSS VL: DIVMSQSPSSLPVSVGEKISMTCKSSQSLLYSSNQKNYLAWYQQKPGQSPKLLIYWASTRDSGVPDRFIGSGSGTDFTLTINSVKAEDLAVYYCQQYYNYLTFGAGTKLELK | 26 | 19 | 21 | 53 | 61 | 31 | 35 | 9.71 | 1.7 | 0.00107 | 630000 | 
